Ends that are not written are not given here.
Experiments:
[1] = biological target: T1, ErbB-2 expressed on transfected cells (32D derivative D2; CHO cells co-transfected with ErbB-4) (UniProt P04626 23-1255, limits assumed); assay: in vitro studies with engineered cell lines expressing all four ErbB proteins (FIGS. 3 to 5)
T1 construct: whole, on cells
Experimental: (§1) The indicated derivative lines of 32D cells were tested for cell proliferation using the [3-(4,5-dimethylthiazol-2-yl)-2,5-diphenyl]tetrazolium bromide (MTT) assay. […] The MTT assay was performed 24 hours later.
(§2) The indicated derivatives of 32D cells were incubated for various time intervals in the absence of IL-3. […] For control, cells were incubated with medium conditioned by IL-3-producing cells (open triangles), or with no factor (open circles). The extent of cell proliferation was determined daily by using the colorimetric MTT assay. The data presented are the mean±S.D. of 4 determinations.

[2] = biological target: T2, ErbB-3 expressed on transfected cells (32D derivative D3; CHO cells co-transfected with ErbB-4) (UniProt P21860 20-1342, limits assumed); assay: as above
T2 construct: whole, on cells
Experimental: as §1, §2

[3] = biological target: T3, ErbB-1 expressed on transfected cells (32D derivative D1; CHO cells co-transfected with ErbB-4) (UniProt P00533 25-1210, limits assumed); assay: as above
T3 construct: whole, on cells; also called Epidermal Growth Factor Receptor
Experimental: as §1, §2

[4] = biological target: T4, ErbB-4 expressed on transfected cells (CHO cells; 32D derivatives D4 and D24) (UniProt Q15303 26-1308, limits assumed); assay: displacement of radiolabeled NRG-1β (5 ng/ml) from CHO cells expressing ErbB-4 by unlabeled ligand, 2 hours at 4 C
T4 construct: whole, on cells; also called surface-expressed ErbB-4
Description: (§3) Each data point represents the mean and range (bars) of two determinations.
(§4) To quantify the interaction, a ligand displacement analysis on ErbB-4-expressing CHO cells was undertaken.

[5] = biological target: T4, ErbB-4 expressed on transfected cells …; assay: displacement of radiolabeled NRG-1β (5 ng/ml) from CHO cells expressing ErbB-4 by unlabeled ligand; reference unlabeled NRG-1
Description: as §3, §4

T4 sequence (Q15303 26-1308 limits assumed): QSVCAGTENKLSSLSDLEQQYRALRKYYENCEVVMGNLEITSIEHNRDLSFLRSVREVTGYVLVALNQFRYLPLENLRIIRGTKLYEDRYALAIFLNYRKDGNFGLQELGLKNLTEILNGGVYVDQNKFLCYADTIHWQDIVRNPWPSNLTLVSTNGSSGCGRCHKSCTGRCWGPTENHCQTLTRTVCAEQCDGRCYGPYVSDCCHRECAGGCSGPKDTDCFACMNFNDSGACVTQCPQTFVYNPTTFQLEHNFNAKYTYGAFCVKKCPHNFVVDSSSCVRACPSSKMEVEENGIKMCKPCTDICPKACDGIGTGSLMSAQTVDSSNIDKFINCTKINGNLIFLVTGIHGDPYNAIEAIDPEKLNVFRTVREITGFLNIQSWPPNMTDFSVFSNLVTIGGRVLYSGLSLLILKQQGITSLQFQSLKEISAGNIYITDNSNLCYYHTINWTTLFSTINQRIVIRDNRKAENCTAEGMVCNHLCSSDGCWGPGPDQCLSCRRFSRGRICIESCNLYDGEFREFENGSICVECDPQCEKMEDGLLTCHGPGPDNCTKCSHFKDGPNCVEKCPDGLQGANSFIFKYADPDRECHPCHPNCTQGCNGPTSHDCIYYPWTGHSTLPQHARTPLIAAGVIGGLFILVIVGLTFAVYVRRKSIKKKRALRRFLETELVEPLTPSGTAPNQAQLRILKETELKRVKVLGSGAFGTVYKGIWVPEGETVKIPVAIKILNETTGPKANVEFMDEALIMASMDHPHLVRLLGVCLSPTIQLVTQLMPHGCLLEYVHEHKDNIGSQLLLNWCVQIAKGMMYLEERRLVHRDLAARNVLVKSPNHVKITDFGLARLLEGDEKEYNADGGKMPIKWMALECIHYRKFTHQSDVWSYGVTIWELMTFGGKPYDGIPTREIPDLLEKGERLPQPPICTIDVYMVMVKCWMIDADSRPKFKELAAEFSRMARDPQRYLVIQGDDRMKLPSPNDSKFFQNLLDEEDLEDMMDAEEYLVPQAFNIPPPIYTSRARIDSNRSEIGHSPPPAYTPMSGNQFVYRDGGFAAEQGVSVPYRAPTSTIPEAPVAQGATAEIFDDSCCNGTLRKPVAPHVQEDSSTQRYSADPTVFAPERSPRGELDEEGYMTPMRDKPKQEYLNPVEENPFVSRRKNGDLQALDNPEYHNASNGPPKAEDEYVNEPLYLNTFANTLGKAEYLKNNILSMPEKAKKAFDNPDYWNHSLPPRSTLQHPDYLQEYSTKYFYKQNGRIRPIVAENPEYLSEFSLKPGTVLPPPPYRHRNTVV
T2 sequence (P21860 20-1342 limits assumed): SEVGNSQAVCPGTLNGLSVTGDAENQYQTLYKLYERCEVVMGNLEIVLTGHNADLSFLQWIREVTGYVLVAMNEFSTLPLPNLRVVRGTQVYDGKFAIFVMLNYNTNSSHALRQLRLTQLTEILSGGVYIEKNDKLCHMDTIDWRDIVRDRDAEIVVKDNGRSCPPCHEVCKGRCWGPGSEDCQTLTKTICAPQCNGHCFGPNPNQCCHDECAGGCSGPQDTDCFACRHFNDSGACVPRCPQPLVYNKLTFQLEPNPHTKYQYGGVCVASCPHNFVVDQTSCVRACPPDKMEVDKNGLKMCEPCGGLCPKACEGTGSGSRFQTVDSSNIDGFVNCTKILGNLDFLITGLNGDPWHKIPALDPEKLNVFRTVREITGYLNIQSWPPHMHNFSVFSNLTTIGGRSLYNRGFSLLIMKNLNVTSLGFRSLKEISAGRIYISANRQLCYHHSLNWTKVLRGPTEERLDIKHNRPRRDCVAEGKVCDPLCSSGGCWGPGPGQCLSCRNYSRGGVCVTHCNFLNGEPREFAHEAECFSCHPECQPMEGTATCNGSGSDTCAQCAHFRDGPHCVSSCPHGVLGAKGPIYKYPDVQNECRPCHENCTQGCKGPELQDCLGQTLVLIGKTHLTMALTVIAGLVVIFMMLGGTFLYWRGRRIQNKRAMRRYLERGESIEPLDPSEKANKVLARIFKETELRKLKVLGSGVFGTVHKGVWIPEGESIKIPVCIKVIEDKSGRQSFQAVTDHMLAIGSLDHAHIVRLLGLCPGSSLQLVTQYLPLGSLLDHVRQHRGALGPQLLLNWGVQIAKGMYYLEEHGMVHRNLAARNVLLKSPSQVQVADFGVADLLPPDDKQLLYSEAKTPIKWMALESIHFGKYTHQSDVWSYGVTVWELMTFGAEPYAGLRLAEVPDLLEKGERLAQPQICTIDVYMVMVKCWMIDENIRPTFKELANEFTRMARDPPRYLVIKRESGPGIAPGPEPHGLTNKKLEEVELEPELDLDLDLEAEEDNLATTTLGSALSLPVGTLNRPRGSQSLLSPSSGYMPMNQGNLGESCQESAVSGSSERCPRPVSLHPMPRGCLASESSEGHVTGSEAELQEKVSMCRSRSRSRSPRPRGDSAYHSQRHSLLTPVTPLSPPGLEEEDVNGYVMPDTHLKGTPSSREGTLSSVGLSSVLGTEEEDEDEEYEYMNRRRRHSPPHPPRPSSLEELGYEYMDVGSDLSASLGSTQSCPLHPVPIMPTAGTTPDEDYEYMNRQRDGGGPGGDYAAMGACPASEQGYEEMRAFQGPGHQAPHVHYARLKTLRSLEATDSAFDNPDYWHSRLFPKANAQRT

B1: synthetic refolded mouse EGF-like domain of NRG-4 (residues 4 to 50, SEQ ID NO:2) (ligand)
peptide: DHEQPCGPRHRSFCLNGGICYVIPTIPSPFCRCIENYTGARCEEVFL
modifications: disulfide (positions not given here); also: three disulfide bonds, pairing not given here
notes: Chemically synthesised, folded and fully oxidized (three predicted disulfide bonds); also called Neuregulin-4; the novel synthetic peptide
B1: no binding [1]; no binding [2]; no binding [3]. The Kd [4] was roughly 20 nM and the “fold lower binding affinity than NRG-1” value [5] was roughly 8 fold.

From patent publication US20040121326A1 (YEDA RESEARCH AND DEVELOPMENT, published 2004)
